These are literature values, as cited in patent US12377186B2, “Antimicrobial biopolymer compositions, methods of synthesis, and applications of use” (ARIZONA BOARD OF REGENTS ON BEHALF OF THE UNIVERSITY OF …, priority 2018, dated 2025).

The conditions of the data set: cited from earlier work.

In the case of “[(VPGAG)2 (VPGYG)1 (VPGAG)2]36 [ELP (A2Y1A2)36]”, for the setting “180 ELP pentapeptide repeats, according to previous research by Ingrole et al.”, the “Tt, experimental of ELP (Tyr)” value is 25 °C. Where the note is “relative to the smaller ELP(A2Y1A2)24”, the “change in Tt when fused to a hydrophilic peptide” value was “less change in Tt”.
